Experimental data as given in patent publication US20070253950A1.

B1: XT-M4-V10 (antibody, from a related filing, V domains shown)
VH: EVQLVESGGGLVQPGGSLRLSCAASGFTFNNYWMTWVRQAPGKGLEWVASIDNSGDNTYYPDSVKDRFTISRDNAKNSLYLQMNSLRAEDTAVYYCARGGDITTGFDYWGQGTLVTVSS
VL: DIQMTQSPSSLSASVGDRVTITCRASQDVGIYVNWFQQKPGKAPKRLIYRATNLADGVPSRFSGSGSGTDFTLTISSLQPEDFATYYCLEFDEHPLTFGGGTKVEIK
B2: XT-M4-V14 (antibody, from a related filing, V domains shown)
VH: EVQLVESGGGLVQPGGSLRLSCAASGFTFNNYWMTWVRQAPGKGLEWVASIDNSGDNTYYPDSVKDRFTISRDNAKNSLYLQMNSLRAEDTAVYYCARGGDITTGFDYWGQGTLVTVSS
VL: DIQMTQSPSSLSASVGDRVTITCRASQDVGIYVNWFQQKPGKAPKRLIYRATNLADGVPSRFSGSRSGTDFTLTISSLQPEDFATYYCLEFDEHPLTFGGGTKVEIK
B3: XT-M4-V11 (antibody, from a related filing, V domains shown)
VH: EVQLVESGGGLVQPGGSLRLSCAASGFTFNNYWMTWVRQAPGKGLEWVASIDNSGDNTYYPDSVKDRFTISRDNAKNSLYLQMNSLRAEDTAVYYCARGGDITTGFDYWGQGTLVTVSS
VL: DIQMTQSPSSLSASVGDRVTITCRASQDVGIYVNWFQQKPGKAPRRLIYRATNLADGVPSRFSGSRSGTDFTLTISSLQPEDFATYYCLEFDEHPLTFGGGTKVEIK

Columns and labels:
[1] = biological target: murine RAGE-strep tag fusion protein (murine) (UniProt Q62151); assay: BIACORE capture assay: mRAGE-SA (SA-Mu RAGE) over antibody captured on anti-human Fc; 1:1 Langmuir global fit; FC4
[2] = biological target: human RAGE-strep tag fusion protein (human) (UniProt Q15109); assay: BIACORE capture assay: hRAGE-SA over antibody captured on anti-human Fc; steady state affinity; average of FC2-FC4
[3] = biological target: human RAGE-strep tag fusion protein (human) (UniProt Q15109); assay: BIACORE capture assay: hRAGE-SA over antibody captured on anti-human Fc; 1:1 Langmuir global fit; FC3
[4] = biological target: human RAGE-strep tag fusion protein (human) (UniProt Q15109); assay: BIACORE capture assay: hRAGE-SA over antibody captured on anti-human Fc; steady state affinity; FC3
[5] = biological target: human RAGE-strep tag fusion protein (human) (UniProt Q15109); assay: BIACORE capture assay: hRAGE-SA over antibody captured on anti-human Fc; 1:1 Langmuir global fit; FC2
[6] = biological target: murine RAGE-strep tag fusion protein (murine) (UniProt Q62151); assay: BIACORE capture assay: mRAGE-SA (SA-Mu RAGE) over antibody captured on anti-human Fc; 1:1 Langmuir global fit; FC2
[7] = biological target: human RAGE-strep tag fusion protein (human) (UniProt Q15109); assay: BIACORE capture assay: hRAGE-SA over antibody captured on anti-human Fc; steady state affinity; FC2
[8] = biological target: murine RAGE-strep tag fusion protein (murine) (UniProt Q62151); assay: BIACORE capture assay: mRAGE-SA (SA-Mu RAGE) over antibody captured on anti-human Fc; 1:1 Langmuir global fit; average of FC2-FC4
[9] = biological target: human RAGE-strep tag fusion protein (human) (UniProt Q15109); assay: BIACORE capture assay: hRAGE-SA over antibody captured on anti-human Fc; 1:1 Langmuir global fit; FC4
[10] = biological target: human RAGE-strep tag fusion protein (human) (UniProt Q15109); assay: BIACORE capture assay: hRAGE-SA over antibody captured on anti-human Fc; steady state affinity; FC4
[11] = biological target: human RAGE-strep tag fusion protein (human) (UniProt Q15109); assay: BIACORE capture assay: hRAGE-SA over antibody captured on anti-human Fc; 1:1 Langmuir global fit; average of FC2-FC4
[12] = biological target: murine RAGE-strep tag fusion protein (murine) (UniProt Q62151); assay: BIACORE capture assay: mRAGE-SA (SA-Mu RAGE) over antibody captured on anti-human Fc; 1:1 Langmuir global fit; FC3

Chain of murine RAGE-strep tag fusion protein (murine) (Q62151 other isoform, or with tags, fused parts or gaps): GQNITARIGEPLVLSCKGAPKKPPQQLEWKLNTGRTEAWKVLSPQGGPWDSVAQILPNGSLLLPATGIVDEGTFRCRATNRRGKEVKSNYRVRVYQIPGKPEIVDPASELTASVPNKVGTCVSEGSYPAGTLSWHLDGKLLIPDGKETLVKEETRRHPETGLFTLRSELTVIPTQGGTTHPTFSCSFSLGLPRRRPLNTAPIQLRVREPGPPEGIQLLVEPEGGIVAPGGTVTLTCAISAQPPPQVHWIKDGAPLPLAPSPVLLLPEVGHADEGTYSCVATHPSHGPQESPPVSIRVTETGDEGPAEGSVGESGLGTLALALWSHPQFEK
Chain of human RAGE-strep tag fusion protein (human) (Q15109 other isoform, or with tags, fused parts or gaps): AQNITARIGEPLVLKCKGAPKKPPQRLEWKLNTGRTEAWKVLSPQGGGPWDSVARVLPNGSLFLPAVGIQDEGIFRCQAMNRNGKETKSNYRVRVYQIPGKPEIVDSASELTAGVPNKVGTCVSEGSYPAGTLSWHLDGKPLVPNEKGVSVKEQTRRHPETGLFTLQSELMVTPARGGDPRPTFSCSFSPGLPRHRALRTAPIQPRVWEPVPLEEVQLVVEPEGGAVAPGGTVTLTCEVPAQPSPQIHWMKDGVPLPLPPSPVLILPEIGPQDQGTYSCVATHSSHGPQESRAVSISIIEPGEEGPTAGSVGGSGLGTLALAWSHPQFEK

Row | Binder | Kd [1] [nM] | koff [1] [s⁻¹] | kon [1] [M⁻¹ s⁻¹] | Kd [2] [nM] | Kd [3] [nM] | koff [3] [s⁻¹] | kon [3] [M⁻¹ s⁻¹] | Kd [4] [nM] | Kd [5] [nM] | koff [5] [s⁻¹] | kon [5] [M⁻¹ s⁻¹] | Kd [6] [nM] | koff [6] [s⁻¹] | kon [6] [M⁻¹ s⁻¹] | Kd [7] [nM] | Kd [8] [nM] | koff [8] [s⁻¹] | kon [8] [M⁻¹ s⁻¹] | Kd [9] [nM] | koff [9] [s⁻¹] | further results
1 | B1 | 3 | 0.0078 | 2.6e+06 | 25 | 18.2 | 0.0569 | 3.13e+06 | 24 | 31.8 | 0.00972 | 306000 | 3 | 0.0078 | 2.6e+06 | 25 | 3 | 0.0077 | 2.6e+06 | 20.3 | 0.0704 | kon [9]: 3.47e+06 M⁻¹ s⁻¹; Kd [10]: 26 nM; Kd [11]: 23.4 nM; koff [11]: 0.0457 s⁻¹; kon [11]: 2.3e+06 M⁻¹ s⁻¹; Kd [12]: 2.9 nM; koff [12]: 0.0076 s⁻¹; kon [12]: 2.6e+06 M⁻¹ s⁻¹
2 | B2 | 2 | 0.0041 | 2.1e+06 | 16 | 11.7 | 0.0464 | 3.96e+06 | 15 | 13.8 | 0.0366 | 2.66e+06 | 2 | 0.0043 | 2.2e+06 | 16 | 2 | 0.0042 | 2.1e+06 | 13.2 | 0.0661 | kon [9]: 5.02e+06 M⁻¹ s⁻¹; Kd [10]: 16 nM; Kd [11]: 12.9 nM; koff [11]: 0.0497 s⁻¹; kon [11]: 3.88e+06 M⁻¹ s⁻¹; Kd [12]: 1.9 nM; koff [12]: 0.004 s⁻¹; kon [12]: 2.1e+06 M⁻¹ s⁻¹
3 | B3 | 2 | 0.0041 | 2e+06 | 16 | 12 | 0.039 | 3.4e+06 | 15 | 13 | 0.033 | 2.5e+06 | 2 | 0.0043 | 2.2e+06 | 16 | 2 | 0.0042 | 2.1e+06 | 13 | 0.041 | kon [9]: 3.2e+06 M⁻¹ s⁻¹; Kd [10]: 17 nM; Kd [11]: 12.5 nM; koff [11]: 0.0374 s⁻¹; kon [11]: 3.01e+06 M⁻¹ s⁻¹; Kd [12]: 2 nM; koff [12]: 0.0042 s⁻¹; kon [12]: 2.1e+06 M⁻¹ s⁻¹
